# Source: article PMC11409674, “Raffinocyclicin is a novel plasmid-encoded circular bacteriocin produced by Lactococcus raffinolactis with broad-spectrum activity against many gram-positive food pathogens” (Applied and environmental microbiology, 2024)
# Tests used:
# proteases = system: proteases; design: method as in 4 sources, ref 33 = [33]; PMID 21948835; doi:10.1128/AEM.06348-11; 33 Masuda Y Ono H Kitagawa H Ito H Mu F Sawa N Zendo T Sonomoto K Identification and characterization of leucocyclicin Q, a novel cyclic bacteriocin produced by Leuconostoc mesenteroides TK41401 Appl ||| ref 27 = [27]; PMID 21057028; doi:10.1128/AEM.01173-10; 27 Borrero J Brede DA Skaugen M Diep DB Herranz C Nes IF Cintas LM Hernández PE Characterization of garvicin ML, a novel circular bacteriocin produced by Lactococcus garvieae DCC43, isolated from mall ||| ref 30 = [30]; PMID 29177092; doi:10.1099/mgen.0.000134; 30 van Heel AJ Montalban-Lopez M Oliveau Q Kuipers OP Genome-guided identification of novel head-to-tail cyclized antimicrobial peptides, exemplified by the discovery of pumilarin Microb Genom 2017 3 ||| ref 29 = [29]; PMID 18552180; doi:10.1128/AEM.00817-08; 29 Martin-Visscher LA van Belkum MJ Garneau-Tsodikova S Whittal RM Zheng J McMullen LM Vederas JC Isolation and characterization of carnocyclin A, a novel circular bacteriocin produced by Carnobacteri; details: cited from earlier work
# proteinase K = molecular target: T1, proteinase K (Parengyodontium album, UniProt P06873); assay: residual antimicrobial activity after proteinase K treatment; assay type: in vitro ADME; details: proteinase K 1 mg/mL, 37 °C, 4 h
# T1 construct: purchased Sigma-Aldrich, St Louis, USA
# T1 sequence (P06873 106-384): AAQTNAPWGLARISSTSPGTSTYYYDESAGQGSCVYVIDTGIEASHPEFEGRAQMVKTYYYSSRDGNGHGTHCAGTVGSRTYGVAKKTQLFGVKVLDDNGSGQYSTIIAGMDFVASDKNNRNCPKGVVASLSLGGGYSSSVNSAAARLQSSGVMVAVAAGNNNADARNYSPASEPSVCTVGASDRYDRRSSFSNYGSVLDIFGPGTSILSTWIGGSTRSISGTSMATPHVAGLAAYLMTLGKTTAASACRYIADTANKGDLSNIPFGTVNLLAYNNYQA
Substance,antimicrobial activity after protease treatment (proteases),loss of activity when treated with proteinase K (proteinase K; indicator L. lactis HP),"Phenotype (proteinase K; 40 µL spotted around chloroform-inactivated producer spot, overlay L. lactis HP, 30 °C, 24 h)","Residual activity (proteinase K; 40 µL spotted around chloroform-inactivated producer spot, overlay L. lactis HP, 30 °C, 24 h, true halo treated/control (10 mM PBS pH 7.4) × 100) [%]"
"carnocyclin A (LVAYGIAQGTAEKVVSLINAGLTVGSIISILGGVTVGLSGVFTAVKAAIAKQGIKKAIQL; UniProt B2MVM5 5-64, looked up) [circular bacteriocin]",completely abolished,,,
raffinocyclicin,,over 90%,S,7
